Measurements published in paper doi:10.1101/2024.11.13.623448.

Tests used:
[1] = target: nucleosome core particle: Cse4, H2A, H2B, H4 histone octamer wrapped with chimeric centromeric DNA (CCEN) (S. cerevisiae | K. lactis) (UniProt P36012); assay: optical trap bead-microtubule binding assay; His6-NCPs (40 nM) held on polystyrene beads by anti-His6 antibody; 10 nM OA or 20 nM Mif2, 10 nM 2D-MIND, 10 nM Ndc80c, 5 nM Dam1c free in solution; bead brought to the dynamic plus end of a surface-anchored microtubule and released from the trap; 1x BRB80, 1 mM GTP, 16 uM tubulin, room temperature
[2] = target: nucleosome core particle: Cse4, H2A, H2B, H4 histone octamer wrapped with Widom 601 DNA (S. cerevisiae | K. lactis) (UniProt P36012); assay: as above

- percent of beads that bound microtubules [1]: > 78%
- percent of beads that bound microtubules [2]: > 78%
Substance: Mif2-linker-(27-392)MBP (from UniProt P35201 1-549) (natural protein)
